Values quoted from earlier work as cited in patent publication US20250101104A1, “BISPECIFIC MOLECULE WITH TUNABLE AFFINITY TO A TARGETED ANTIGEN” (MABSWITCH INC., priority 2022, published 2025).

System: AML cell lines and primary AML blasts
Settings: in vitro and in NOD SCID mice injected with human AML

B1: MGDO06: CD3×CD123 DART (Macrogenics) (antibody, chains of the INN, looked up, V domains shown)
VH: EVQLVQSGAELKKPGASVKVSCKASGYTFTDYYMKWVRQAPGQGLEWIGDIIPSNGATFYNQKFKGRVTITVDKSTSTAYMELSSLRSEDTAVYYCARSHLLRASWFAYWGQGTLVTVSS
VL: DFVMTQSPDSLAVSLGERVTMSCKSSQSLLNSGNQKNYLTWYQQKPGQPPKLLIYWASTRESGVPDRFSGSGSGTDFTLTISSLQAEDVAVYYCQNDYSYPYTFGQGTKLEIK
VH2: EVQLVESGGGLVQPGGSLRLSCAASGFTFSTYAMNWVRQAPGKGLEWVGRIRSKYNNYATYYADSVKDRFTISRDDSKNSLYLQMNSLKTEDTAVYYCVRHGNFGNSYVSWFAYWGQGTLVTVSS
VL2: QAVVTQEPSLTVSPGGTVTLTCRSSTGAVTTSNYANWVQQKPGQAPRGLIGGTNKRAPWTPARFSGSLLGGKAALTITGAQAEDEADYYCALWYSNLWVFGGGTKLTVL
modifications: DART
In the case of B1, the “killing of AML cell lines and primary AML blasts” value is listed as “dose-dependent killing”.
